Entries after “also recorded” stand apart in the source; their conditions may differ.
Experiments:
S5a [1] = assay: ubiquitination assay of E3 ligases using S5a as the substrate; assay type: biochemical; conditions: 0.2 mg/mL E3, 200 nM S5a, 1 hour at 37° C., Western blot
Protocol: For each E3 ligase, a ubiquitination assay using S5a as the substrate was carried out. Briefly, the ubiquitination reaction contained 50 nM E1, 1 mM MgATP, 5 μM UbcH7, 0.2 mg/mL E3, 200 nM ubiquitin, and 200 nM S5a. Ubiquitination reactions were incubated for 1 hour at 37° C. and samples were taken at time 0, 30′ and 60′. Samples were run on SDS-PAGE, transferred to immobilon and Western blotted using monoclonal antibody to S5a (BioMol).

S5a [2] = assay: thermal denaturation of E3 ligases (S5a ubiquitination after pre-incubation); assay type: biochemical; conditions: for Thermal Denaturation Temperature (temperature at which approximately 50% of activity was lost): E3 pre-incubated 90 minutes at 4° C. to 60° C., then S5a ubiquitination 60 minutes at 37° C.
Protocol: To characterize the thermal denaturation properties E3 ligases, the E3 was pre-incubated for 90 minutes at a temperature ranging from 4° C. to 60° C. (Mdm2 and Nedd4 at 4, 37, 45, 50 and 60° C.; Murf1 at 4, 37, 50, 60, 70 and 80° C.; E6AP at 37, 39, 41, 43, and 45° C. At 90 minutes, a pre-mix was made containing 50 nM E1, 1 mM Mg-ATP, 5 μM UbcH7 (UbcH5a for Mdm2 and Murf1), 200 nM ubiquitin and 200 nM S5a. The pre-mix was added to 0.2 mg/mL of E3 ligase and incubated at 37° C. for 60 minutes. Samples were run on SDS-PAGE and assessed by Western blotting using monoclonal antibody to S5a (BioMol).

Molecule	Ubiquitinated S5a? (S5a [1])	Thermal Denaturation Temperature (temperature at which approximately 50% of activity was lost) (S5a [2]) [°C]	Thermal Denaturation Temperature (temperature at which approximately 50% of activity was lost) (S5a [2]; listed as E6AP) [°C]	Ubiquitinated S5a? (S5a [1]; listed as Siah2)	Ubiquitinated S5a? (S5a [1]; listed as CHIP)	S5a ubiquitination activity after thermal pre-incubation (S5a [2]; E3 pre-incubated 90 minutes at 4, 37, 45, 50 and 60° C.)	Thermal Denaturation Temperature (temperature at which approximately 50% of activity was lost) (S5a [2]; listed as Murf1) [°C]
GST-E6AP: GST fusion of Human papillomavirus E6-associated protein, HECT E3 ligase	Yes	41	41				
GST-Siah2: GST fusion of Seven in absentia homolog 2, RING E3 ligase (protein, left off: a dimerising Fc or GST, GST fusion of Seven in absentia homolog 2, RING E3 ligase) MSRPSSTGPSANKPCSKQPPPQPQHTPSPAAPPAAATISAAGPGSSAVPAAAAVISGPGGGGGAGPVSPQHHELTSLFECPVCFDYVLPPILQCQAGHLVCNQCRQKLSCCPTCRGALTPSIRNLAMEKVASAVLFPCKYATTGCSLTLHHTEKPEHEDICEYRPYSCPCPGASCKWQGSLEAVMSHLMHAHKSITTLQGEDIVFLATDINLPGAVDWVMMQSCFGHHFMLVLEKQEKYEGHQQFFAIVLLIGTRKQAENFAYRLELNGNRRRLTWEATPRSIHDGVAAAIMNSDCLVFDTAIAHLFADNGNLGINVTISTCCP	Yes (low)			very low activity			
His-CHIP: His-tagged carboxyl terminus of Hsp70-interacting protein, U-box E3 ligase (protein, left off: small tags and cut ends) MKGKEEKEGGARLGAGGGSPEKSPSAQELKEQGNRLFVGRKYPEAAACYGRAITRNPLVAVYYTNRALCYLKMQQHEQALADCRRALELDGQSVKAHFFLGQCQLEMESYDEAIANLQRAYSLAKEQRLNFGDDIPSALRIAKKKRWNSIEERRIHQESELHSYLSRLIAAERERELEECQRNHEGDEDDSHVRAQQACIEAKHDKYMADMDELFSQVDEKRKKRDIPDYLCGKISFELMREPCITPSGITYDRKDIEEHLQRVGHFDPVTRSPLTQEQLIPNLAMKEVIDAFISENGWVEDY	Yes				reasonable activity		
GST-Nedd4: GST fusion of Nedd4, HECT E3 ligase (protein, left off: a dimerising Fc or GST, GST fusion of Nedd4, HECT E3 ligase) MATCAVEVFGLLEDEENSRIVRVRVIAGIGLAKKDILGASDPYVRVTLYDPMNGVLTSVQTKTIKKSLNPKWNEEILFRVHPQQHRLLFEVFDENRLTRDDFLGQVDVPLYPLPTENPRLERPYTFKDFVLHPRSHKSRVKGYLRLKMTYLPKTSGSEDDNAEQAEELEPGWVVLDQPDAACHLQQQQEPSPLPPGWEERQDILGRTYYVNHESRRTQWKRPTPQDNLTDAENGNIQLQAQRAFTTRRQISEETESVDNRESSENWEIIREDEATMYSNQAFPSPPPSSNLDVPTHLAEELNARLTIFGNSAVSQPASSSNHSSRRGSLQAYTFEEQPTLPVLLPTSSGLPPGWEEKQDERGRSYYVDHNSRTTTWTKPTVQATVETSQLTSSQSSAGPQSQASTSDSGQQVTQPSEIEQGFLPKGWEVRHAPNGRPFFIDHNTKTTTWEDPRLKIPAHLRGKTSLDTSNDLGPLPPGWEERTHTDGRIFYINHNIKRTQWEDPRLENVAITGPAVPYSRDYKRKYEFFRRKLKKQNDIPNKFEMKLRRATVLEDSYRRIMGVKRADFLKARLWIEFDGEKGLDYGGVAREWFFLISKEMFNPYYGLFEYSATDNYTLQINPNSGLCNEDHLSYFKFIGRVAGMAVYHGKLLDGFFIRPFYKMMLHKPITLHDMESVDSEYYNSLRWILENDPTELDLRFIIDEELFGQTHQHELKNGGSEIVVTNKNKKEYIYLVIQWRFVNRIQKQMAAFKEGFFELIPQDLIKIFDENELELLMCGLGDVDVNDWREHTKYKNGYSANHQVIQWFWKAVLMMDSEKRIRLLQFVTGTSRVPMNGFAELYGSNGPQSFTVEQWGTPEKLPRAHTCFNRLDLPPYESFEELWDKLQMAIENTQGFDGVD	Yes	37				did not show any activity when pre-incubated at temperatures higher than 4 °C; also recorded: lose activity following pre-incubation at any temperature except 4 °C	
GST-Murf1: GST fusion of Muscle-specific RING finger protein 1, RING E3 ligase (protein, left off: a dimerising Fc or GST, GST fusion of Muscle-specific RING finger protein 1, RING E3 ligase) MDYKSSLIQDGNPMENLEKQLICPICLEMFTKPVVILPCQHNLCRKCANDIFQAANPYWTSRGSSVSMSGGRFRCPTCRHEVIMDRHGVYGLQRNLLVENIIDIYKQECSSRPLQKGSHPMCKEHEDEKINIYCLTCEVPTCSMCKVFGIHKACEVAPLQSVFQGQKTELNNCISMLVAGNDRVQTIITQLEDSRRVTKENSHQVKEELSQKFDTLYAILDEKKSELLQRITQEQEKKLSFIEALIQQYQEQLDKSTKLVETAIQSLDEPGGATFLLTAKQLIKSIVEASKGCQLGKTEQGFENMDFFTLDLEHIADALRAIDFGTDEEEEEFIEEEDQEEEESTEGKEEGHQ	Yes	60					60
GST-parkin: GST fusion of parkin, RING class E3 ligase (protein, left off: a dimerising Fc or GST, GST fusion of parkin, RING class E3 ligase) MIVFVRFNSSHGFPVEVDSDTSIFQLKEVVAKRQGVPADQLRVIFAGKELRNDWTVQNCDLDQQSIVHIVQRPWRKGQEMNATGGDDPRNAAGGCEREPQSLTRVDLSSSVLPGDSVGLAVILHTDSRKDSPPAGSPAGRSIYNSFYVYCKGPCQRVQPGKLRVQCSTCRQATLTLTQGPSCWDDVLIPNRMSGECQSPHCPGTSAEFFFKCGAHPTSDKETSVALHLIATNSRNITCITCTDVRSPVLVFQCNSRHVICLDCFHLYCVTRLNDRQFVHDPQLGYSLPCVAGCPNSLIKELHHFRILGEEQYNRYQQYGAEECVLQMGGVLCPRPGCGAGLLPEPDQRKVTCEGGNGLGCGFAFCRECKEAYHEGECSAVFEASGTTTQAYRVDERAAEQARWEAASKETIKKTTKPCPRCHVPVEKNGGCMHMKCPQPQCRLEWCWNCGCEWNRVCMGDHWFDV	Yes	49					

Reference: patent publication US7790365B2, “Assays for modulators of parkin activity using S5a as a parkin substrate” (Elan Pharma International Limited, priority 2007, dated 2010)
